Assays:
[1] = test system: #B1-3 anti-m6A monoclonal antibody (guinea pig (Hartley)); test: UV crosslinking, IP and RT truncation (footprinting); conditions: 41 clones sequenced; m6A at position 14; SPR: Biacor T100, HBS-EP+ buffer, 30 ul/min, biotin-RNA at 20 RU on SA chip, antibody 0-27 nM, 1:1 fit; ELISA: PBS, 3 h, room temperature; UV-crosslink IP: …
[2] = test system: #B1-3 anti-m6A monoclonal antibody (guinea pig (Hartley)); test: SPR; conditions: m6A at position 6; SPR: Biacor T100, HBS-EP+ buffer, 30 ul/min, biotin-RNA at 20 RU on SA chip, antibody 0-27 nM, 1:1 fit; ELISA: PBS, 3 h, room temperature; UV-crosslink IP: …
[3] = test system: #B1-1 anti-m6A monoclonal antibody (guinea pig (Hartley)); test: SPR; conditions: m6A at position 6; SPR: Biacor T100, HBS-EP+ buffer, 30 ul/min, biotin-RNA at 20 RU on SA chip, antibody 0-27 nM, 1:1 fit; ELISA: PBS, 3 h, room temperature; UV-crosslink IP: …
[4] = test system: #B1-3 anti-m6A monoclonal antibody (guinea pig (Hartley)); test: pull-down (protein A IP); conditions: m6A at position 6; SPR: Biacor T100, HBS-EP+ buffer, 30 ul/min, biotin-RNA at 20 RU on SA chip, antibody 0-27 nM, 1:1 fit; ELISA: PBS, 3 h, room temperature; UV-crosslink IP: …

Sequence	binding signal (% RT truncations at m6A) [1]	Kd [2]	Kd [3]	binding signal (% immunoprecipitated) [4]
AUCAUCUUUCGGGACUGACCUGAAAUGAACCCUA [Snord-oligo (Snord2, 34 nt)]	68			
NNNGGACNNN [m6A-oligo]		6.5 nM	2.5 nM	35
